Data as given in US20150164996A1 (Sanofi, published 2015).
Read-outs that look alike come from different tables or passages of the source. Square brackets hold non-standard residues; d marks the D form. Ends that are not written are not given here. Aib = CC(C)(N)C(=O)O

T1: human GIP receptor (human, UniProt P48546 22-466)
T1 sequence (looked up): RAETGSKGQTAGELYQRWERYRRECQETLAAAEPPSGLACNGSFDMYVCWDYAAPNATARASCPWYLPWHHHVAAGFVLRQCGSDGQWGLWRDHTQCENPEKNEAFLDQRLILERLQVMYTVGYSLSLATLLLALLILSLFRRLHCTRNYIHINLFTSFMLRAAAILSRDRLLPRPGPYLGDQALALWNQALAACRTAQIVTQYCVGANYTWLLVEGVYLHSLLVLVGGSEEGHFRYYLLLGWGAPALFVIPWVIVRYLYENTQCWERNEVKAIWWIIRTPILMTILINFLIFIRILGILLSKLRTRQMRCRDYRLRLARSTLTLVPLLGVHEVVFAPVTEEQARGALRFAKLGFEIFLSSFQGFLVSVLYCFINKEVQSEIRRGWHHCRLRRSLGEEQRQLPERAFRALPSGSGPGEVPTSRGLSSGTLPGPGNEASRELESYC


Experiments:
Assay in all cases: cell-based or functional assay
[1] = target: human GLP-1 receptor (human) (UniProt P43220)
Sequence of human GLP-1 receptor (human) (P43220 24-463): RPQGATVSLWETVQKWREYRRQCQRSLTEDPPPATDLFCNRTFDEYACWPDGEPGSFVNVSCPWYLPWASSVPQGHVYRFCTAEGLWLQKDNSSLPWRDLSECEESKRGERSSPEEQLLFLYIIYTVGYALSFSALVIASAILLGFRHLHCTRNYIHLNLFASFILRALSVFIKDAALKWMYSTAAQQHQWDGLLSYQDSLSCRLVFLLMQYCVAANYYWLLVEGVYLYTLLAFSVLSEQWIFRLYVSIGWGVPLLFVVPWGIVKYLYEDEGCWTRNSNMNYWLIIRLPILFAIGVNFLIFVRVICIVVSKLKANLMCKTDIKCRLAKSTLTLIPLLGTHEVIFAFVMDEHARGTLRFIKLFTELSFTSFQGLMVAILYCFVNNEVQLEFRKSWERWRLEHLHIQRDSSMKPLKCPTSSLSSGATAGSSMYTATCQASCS

[2] = target: human glucagon receptor (human) (UniProt P47871)
Sequence of human glucagon receptor (human) (P47871 26-477): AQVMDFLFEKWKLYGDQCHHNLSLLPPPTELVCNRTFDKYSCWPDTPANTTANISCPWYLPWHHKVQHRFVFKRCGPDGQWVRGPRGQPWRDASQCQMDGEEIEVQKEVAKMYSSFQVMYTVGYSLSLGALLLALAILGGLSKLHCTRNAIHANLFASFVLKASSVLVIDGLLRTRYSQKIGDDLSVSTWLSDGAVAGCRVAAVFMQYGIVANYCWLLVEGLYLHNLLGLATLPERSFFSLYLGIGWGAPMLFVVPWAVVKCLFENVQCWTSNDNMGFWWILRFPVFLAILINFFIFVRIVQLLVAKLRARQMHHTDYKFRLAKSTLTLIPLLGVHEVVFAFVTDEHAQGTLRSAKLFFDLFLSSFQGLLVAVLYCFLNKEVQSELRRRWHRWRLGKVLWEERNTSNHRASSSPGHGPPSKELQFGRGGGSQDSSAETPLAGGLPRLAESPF

human GIP receptor [3] = target: T1, human GIP receptor
human GLP-1 receptor [4] = target: T2, human GLP-1 receptor (human, UniProt P43220 24-463)
human glucagon receptor = human glucagon receptor (human, UniProt P47871 26-477)
Sequence of human glucagon receptor (P47871 26-477): as above

human GIP receptor [5] = target: T1, human GIP receptor; remark: listed apart in the source
human GLP-1 receptor [6] = target: T2, human GLP-1 receptor; remark: listed apart in the source
Target sequence in this assay (P43220 24-463): as the sequence (P43220 24-463) above

| Molecule | EC50 hGLP-1 R [pM] (cAMP formation, HTRF, HEK-293 cells) [1] | EC50 hGlucagon R [pM] (cAMP formation, HTRF, HEK-293 cells) [2] | EC50 hGIP R [pM] (cAMP formation, HTRF, HEK-293 cells) (human GIP receptor [3]) | EC50 hGLP-1 R [pM] (cAMP formation, HTRF, HEK-293 cells) (human GLP-1 receptor [4]) | EC50 hGLUC R [pM] (cAMP formation, HTRF, HEK-293 cells) (human glucagon receptor) | EC50 hGIP R [pM] (cAMP formation, HTRF, HEK-293 cells) (human GIP receptor [5]) | EC50 hGLP-1 R [pM] (cAMP formation, HTRF, HEK-293 cells) (human GLP-1 receptor [6]) |
| --- | --- | --- | --- | --- | --- | --- | --- |
| exendin-4 (peptide) | 0.4 | > 1e+07 | – | – | – | – | – |
| Y[Aib]EGTFTSDLSILLEEEAVRLFIEWLKAGGPSSGAPPPS-NH2 (N-terminus assumed; SMILES CC[C@H](C)[C@H](NC(=O)[C@H](CO)NC(=O)[C@H](CC(C)C)NC(=O)[C@H](CC(=O)O)NC(=O)[C@H](CO)NC(=O)[C@@H](NC(=O)[C@H](Cc1ccccc1)NC(=O)[C@@H](NC(=O)CNC(=O)[C@H](CCC(=O)O)NC(=O)C(C)(C)NC(=O)[C@@H](N)Cc1ccc(O)cc1)[C@@H](C)O)[C@@H](C)O)C(=O)N[C@@H](CC(C)C)C(=O)N[C@@H](CC(C)C)C(=O)N[C@@H](CCC(=O)O)C(=O)N[C@@H](CCC(=O)O)C(=O)N[C@@H](CCC(=O)O)C(=O)N[C@@H](C)C(=O)N[C@H](C(=O)N[C@@H](CCCNC(=N)N)C(=O)N[C@@H](CC(C)C)C(=O)N[C@@H](Cc1ccccc1)C(=O)N[C@H](C(=O)N[C@@H](CCC(=O)O)C(=O)N[C@@H](Cc1c[nH]c2ccccc12)C(=O)N[C@@H](CC(C)C)C(=O)N[C@@H](CCCCN)C(=O)N[C@@H](C)C(=O)NCC(=O)NCC(=O)N1CCC[C@H]1C(=O)N[C@@H](CO)C(=O)N[C@@H](CO)C(=O)NCC(=O)N[C@@H](C)C(=O)N1CCC[C@H]1C(=O)N1CCC[C@H]1C(=O)N1CCC[C@H]1C(=O)N[C@@H](CO)C(N)=O)[C@@H](C)CC)C(C)C) [SEQ ID NO: 11] | – | – | 0.9 | 1.4 | 529000 | – | – |
| Y[Aib]EGTFTSDLSKLLEKEAVRLFIEWLKAGGPSSGAPPPS-NH2 (N-terminus assumed; SMILES CC[C@H](C)[C@H](NC(=O)[C@H](Cc1ccccc1)NC(=O)[C@H](CC(C)C)NC(=O)[C@H](CCCNC(=N)N)NC(=O)[C@@H](NC(=O)[C@H](C)NC(=O)[C@H](CCC(=O)O)NC(=O)[C@H](CCCCN)NC(=O)[C@H](CCC(=O)O)NC(=O)[C@H](CC(C)C)NC(=O)[C@H](CC(C)C)NC(=O)[C@H](CCCCN)NC(=O)[C@H](CO)NC(=O)[C@H](CC(C)C)NC(=O)[C@H](CC(=O)O)NC(=O)[C@H](CO)NC(=O)[C@@H](NC(=O)[C@H](Cc1ccccc1)NC(=O)[C@@H](NC(=O)CNC(=O)[C@H](CCC(=O)O)NC(=O)C(C)(C)NC(=O)[C@@H](N)Cc1ccc(O)cc1)[C@@H](C)O)[C@@H](C)O)C(C)C)C(=O)N[C@@H](CCC(=O)O)C(=O)N[C@@H](Cc1c[nH]c2ccccc12)C(=O)N[C@@H](CC(C)C)C(=O)N[C@@H](CCCCN)C(=O)N[C@@H](C)C(=O)NCC(=O)NCC(=O)N1CCC[C@H]1C(=O)N[C@@H](CO)C(=O)N[C@@H](CO)C(=O)NCC(=O)N[C@@H](C)C(=O)N1CCC[C@H]1C(=O)N1CCC[C@H]1C(=O)N1CCC[C@H]1C(=O)N[C@@H](CO)C(N)=O) [SEQ ID NO: 8] | – | – | 2.3 | 1.2 | 79000 | – | – |
| Y[Aib]EGTFTSDLSKLLDKEAVRLFIEWLKAGGPSSGAPPPS-NH2 (N-terminus assumed; SMILES CC[C@H](C)[C@H](NC(=O)[C@H](Cc1ccccc1)NC(=O)[C@H](CC(C)C)NC(=O)[C@H](CCCNC(=N)N)NC(=O)[C@@H](NC(=O)[C@H](C)NC(=O)[C@H](CCC(=O)O)NC(=O)[C@H](CCCCN)NC(=O)[C@H](CC(=O)O)NC(=O)[C@H](CC(C)C)NC(=O)[C@H](CC(C)C)NC(=O)[C@H](CCCCN)NC(=O)[C@H](CO)NC(=O)[C@H](CC(C)C)NC(=O)[C@H](CC(=O)O)NC(=O)[C@H](CO)NC(=O)[C@@H](NC(=O)[C@H](Cc1ccccc1)NC(=O)[C@@H](NC(=O)CNC(=O)[C@H](CCC(=O)O)NC(=O)C(C)(C)NC(=O)[C@@H](N)Cc1ccc(O)cc1)[C@@H](C)O)[C@@H](C)O)C(C)C)C(=O)N[C@@H](CCC(=O)O)C(=O)N[C@@H](Cc1c[nH]c2ccccc12)C(=O)N[C@@H](CC(C)C)C(=O)N[C@@H](CCCCN)C(=O)N[C@@H](C)C(=O)NCC(=O)NCC(=O)N1CCC[C@H]1C(=O)N[C@@H](CO)C(=O)N[C@@H](CO)C(=O)NCC(=O)N[C@@H](C)C(=O)N1CCC[C@H]1C(=O)N1CCC[C@H]1C(=O)N1CCC[C@H]1C(=O)N[C@@H](CO)C(N)=O) [SEQ ID NO: 9] | – | – | 13 | 2.2 | 149000 | – | – |
| YAEGTFTSDVSIYLEGQAAKEFIAWLVKGR (ends and bridges not checked) [Tyr(1)Ile(12)-GLP1] | – | – | – | – | – | 3660 | 5 |
| Y[Aib]EGTFTSDLSKLLEEEAVRLFIEWLKAGGPSSGAPPPS-NH2 (N-terminus assumed; SMILES CC[C@H](C)[C@H](NC(=O)[C@H](Cc1ccccc1)NC(=O)[C@H](CC(C)C)NC(=O)[C@H](CCCNC(=N)N)NC(=O)[C@@H](NC(=O)[C@H](C)NC(=O)[C@H](CCC(=O)O)NC(=O)[C@H](CCC(=O)O)NC(=O)[C@H](CCC(=O)O)NC(=O)[C@H](CC(C)C)NC(=O)[C@H](CC(C)C)NC(=O)[C@H](CCCCN)NC(=O)[C@H](CO)NC(=O)[C@H](CC(C)C)NC(=O)[C@H](CC(=O)O)NC(=O)[C@H](CO)NC(=O)[C@@H](NC(=O)[C@H](Cc1ccccc1)NC(=O)[C@@H](NC(=O)CNC(=O)[C@H](CCC(=O)O)NC(=O)C(C)(C)NC(=O)[C@@H](N)Cc1ccc(O)cc1)[C@@H](C)O)[C@@H](C)O)C(C)C)C(=O)N[C@@H](CCC(=O)O)C(=O)N[C@@H](Cc1c[nH]c2ccccc12)C(=O)N[C@@H](CC(C)C)C(=O)N[C@@H](CCCCN)C(=O)N[C@@H](C)C(=O)NCC(=O)NCC(=O)N1CCC[C@H]1C(=O)N[C@@H](CO)C(=O)N[C@@H](CO)C(=O)NCC(=O)N[C@@H](C)C(=O)N1CCC[C@H]1C(=O)N1CCC[C@H]1C(=O)N1CCC[C@H]1C(=O)N[C@@H](CO)C(N)=O) [SEQ ID NO: 10] | – | – | 1.3 | 1 | 137000 | – | – |
